From article PMC5009721 come the findings set out here.

For series [1], the target named is T1, RNA polymerase II;TBP (TATA-binding protein);TFIIB;TFIIF (human (HeLa cells);human;human;human, UniProt P24928;P30876;P19387;O15514;P19388;P61218;P62487;P52434;P36954;P62875;P52435;P53 …, |||). Kind of series: EMSA. (In general: In EMSA bound probe runs differently from free probe, usually more slowly.)
Series [2] deals with T2, RNA polymerase II (human (HeLa cells), UniProt P24928;P30876;P19387;O15514;P19388;P61218;P62487;P52434;P36954;P62875;P52435;P53 …). Kind of series: EMSA.
In series [3] the target is T1, RNA polymerase II;TBP (TATA-binding …). The experiment in a line: single-molecule TIRF colocalization, immobilized Pol II.
The target of series [4] is T2, RNA polymerase II. Described as above.
Series [5] addresses T1, RNA polymerase II;TBP (TATA-binding …). The series is described as above. The source holds these as a separate data set.

T1 sequence (P20226 whole entry, chain 13 of 2): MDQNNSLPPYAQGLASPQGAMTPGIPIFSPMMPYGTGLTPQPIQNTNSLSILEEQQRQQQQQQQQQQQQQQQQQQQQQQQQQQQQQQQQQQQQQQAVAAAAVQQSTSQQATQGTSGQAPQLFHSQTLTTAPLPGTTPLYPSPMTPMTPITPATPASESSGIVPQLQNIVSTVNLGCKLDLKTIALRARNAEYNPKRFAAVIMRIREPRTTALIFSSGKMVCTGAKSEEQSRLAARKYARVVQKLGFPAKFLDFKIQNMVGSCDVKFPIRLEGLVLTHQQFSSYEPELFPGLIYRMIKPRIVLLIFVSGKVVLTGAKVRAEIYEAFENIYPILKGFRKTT
T1 sequence (Q00403 whole entry, chain 14 of 2, further chain): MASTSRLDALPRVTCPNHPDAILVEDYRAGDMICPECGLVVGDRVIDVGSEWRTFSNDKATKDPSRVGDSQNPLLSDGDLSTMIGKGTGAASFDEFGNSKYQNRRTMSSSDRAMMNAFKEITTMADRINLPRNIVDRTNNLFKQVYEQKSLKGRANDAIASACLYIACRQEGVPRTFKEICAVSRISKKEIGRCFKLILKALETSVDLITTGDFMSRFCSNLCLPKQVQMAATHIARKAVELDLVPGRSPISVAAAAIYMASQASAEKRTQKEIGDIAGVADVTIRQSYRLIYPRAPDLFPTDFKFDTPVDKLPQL

B1: AdML three-piece heteroduplex (-40 to +37), Cy3/Cy5, quencher (dsDNA)
DNA 1: CCTGAGGTTAGTGTGAGTAGTGATTAAAGATAGTGATGAGGACGAACGCGCCCCCACCCCCTTTTATAGCCCCCCTT
DNA 2: AAGGGGGGCTATAAAAGGGGGTGGGGGCGCGAAGCAGGAGTAGACTATCTTTAATCACTA
DNA 3: CTCACACTAACCTCAGG
Take B1: the binding result (in series [1]; in the series with RNA polymerase II [2]) was “binds” in each case.

B2: AdML three-piece heteroduplex (-40 to +37), Cy3/Cy5, no quencher, no biotin (dsDNA)
DNA 1: CCTGAGGTTAGTGTGAGTAGTGATTAAAGATAGTGATGAGGACGAACGCGCCCCCACCCCCTTTTATAGCCCCCCTT
DNA 2: AAGGGGGGCTATAAAAGGGGGTGGGGGCGCGAAGCAGGAGTAGACTATCTTTAATCACTA
DNA 3: CTCACACTAACCTCAGG
Turning to B2, the binding result (in series [3]; in the series with RNA polymerase II [4]) was “binds” in each case.

B3: 18 bp TATA DNA (dsDNA)
DNA 1: CGTCCCTTTTATAGCCTG
DNA 2: CAGGCTATAAAAGGGACG
For the molecule B3, the binding result in series [5] is on record as “binds”.
